Assay results from patent US20090297524A1 (DOMANTIS, published 2009).

B1: DOM.127 (other)
VH: EVQLLESGGGLVQPGGSLRLSCAASGFTFPSYDMAWVRQAPGKGLEWVSGISRSGSMTYYADSVKGRFTISRDNSKNTLYLQMNSLRAEDTAVYYCAKGVDAHVYYMEPFFDYWGQGTLVTVSS
notes: VH dAb
B2: DOM.135 (other)
VH: EVQLLESGGGLVQPGGSLRLSCAASGFTFRRYVMGWVRQAPGKGLEWVSWIEADGRTTYYADSVKGRFTISRDNSKNTLYLQMNSLRAEDTAVYYCAKGLTDQHVIEFDYWGQGTLVTVSS
notes: VH dAb
B3: DOM.183 (other)
VH: EVQLLESGGGLVQPGGSLRLSCAASGFTFADYGMGWVRQAPGKGLEWVSSIQSSGLRTYYADSVKGRFTISRDNSKNTLYLQMNSLRAEDTAVYYCAKRANSRRGFDYWGQGTLVTVSS
notes: VH dAb
B4: DOM.136 (other)
VH: EVQLLESGGGLVQPGGSLRLSCAASGFTFDGYRMGWVRQAPGKGLEWVSSIAPDGNYTYYADSVKGRFTISRDNSKNTLYLQMNSLRAEDTAVYYCAKFWGMQFDYWGQGTLVTVSS
notes: VH dAb
B5: DOM.191 (other)
VH: EVQLLESGGGLVQPGGSLRLSCAASGFTFKLYPMTWVRQAPGKGLEWVSSIDAGGHETYYADSVKGRFTISRDNSKNTLYLQMNSLRAEDTAVYYCAKDWWDYLFDYWGQGTLVTVSS
notes: VH dAb
B6: DOM.141 (other)
VL: DIQMTQSPSSLSASVGDRVTITCRASQWIGDTLTWYQQKLGKAPKLLIYGGSELQSGVPPRFSGSGSGTDFTLTISSLQPEDFATYYCQQCISSPCTFGQGTKVEIKR
notes: Vk dAb
B7: DOM.176 (other)
VH: EVQLLESGGGLVQPGGSLRLSCAASGFTFDAYEMGWVRQAPGKGLEWVSIIDWDGNSTYYADSVKGRFTISRDNSKNTLYLQMNSLRAEDTAVYYCAKPGDNVGIFDYWGQGTLVTVSS
notes: VH dAb
B8: DOM.195 (other)
VH: EVQLLESGGGLVQPGGSLRLSCAASGFTFGTYDMGWVRQAPGKGLEWVSRINWQGDRTYYADSVKGRFTISRDNSKNTLYLQMNSLRAEDTAVYYCAKAGFGHYVDGLGFDYWGQGTLVTVSS
notes: VH dAb
B9: DOM.138 (other)
VH: EVQLLESGGGLVQPGGSLRLSCAASGFTFLAYWMVWVRQAPGKGLEWVSSISPSGTHTYYADSVKGRFTISRDNSKNTLYLQMNSLRVEDTAVYYCAKYTEPGLGSFDYWGQGTLVTVSS
notes: VH dAb
B10: DOM.149 (other)
VL: DIQMTQSPSSLSASVGDRVTITCRASQWIGRQLVWYQQKPGKAPKLLIYGATELQSGVPSRFSGSGSGTDFTLTISSLQPEDFATYYCQQQSKGPLTFGHGTKVEIKR
notes: Vk dAb
B11: DOM.114 (other)
VH: EVQLLESGGGLVQPGGSLRLSCAASGFRVSNYDLTWVRQAPGKGLEWVSTISATNGSTYYADSVKGRFTISRDNSKNTLYLQMNSLRAEDTAVYYCAAVTWWLLRHNDNLGFWGQGTLVTVSS
B12: DOM.139 (other)
VH: EVQLLESGGGLVQPGGSLRLSCAASGFTFSNYEMGWVRQAPGKGLEWVSVISEVGSLTYYADSVKGRFTISRDNSKNTLYLQMNSLRAEDTAVYYCAKPHDSSIGFDYWGQGTLVTVSS
notes: VH dAb
B13: DOM.189 (other)
VH: EVQLLESGGGLVQPGGSLRLSCAASGFTFQMYPMGWVRQAPGKGLEWVSMIEPAGDLTYYADSVKGRFTISRDNSKNTLYLQMNSLRAEDTAVYYCAKYQEQPWFDYWGQGTLVTVSS
notes: VH dAb
B14: DOM.125 (other)
VH: EVQLLESGGGLVQPGGSLRLSCAASGFTFWRYAMGWVRQAPGKGLEWVSTINDEGRETYYADSVKGRFTISRDNSKNTLYLQMNSLRAEDTAVYYCAKKRVSSSVNAPYEFDYWGQGTLVTVSS
notes: VH dAb
B15: DOM.133 (other)
VH: EVQLLESGGGLVQPGGSLRLSCAASGFTFIGYAMAWVRQAPGKGLEWVSSIGPLGATTYYADSVKGRFTISRDNSKNTLYLQMNSLRAEDTAVYYCAKLPAGTSSHSVDFDYWGQGTLVTVSS
notes: VH dAb
B16: DOM.188 (other)
VH: EVQLLESGGGLVQPGGSLRLSCAASGFTFTRYRMSWVRQAPGKGLEWVSGISRDGYRTYYADSVKGRFTISRDNSKNTLYLQMNSLRAEDTAVYYCAKGMTASFDYWGQGTLVTVSS
notes: VH dAb
B17: DOM.192 (other)
VH: EVQLLESGGGLVQPGGSLRLSCAASGFTFSRYPMSWVRQAPGKGLEWVSSINRSGMRTYYADSVKGRFTISRDNSKNTLYLQMNSLRAEDTAVYYCAEGHQAPFDYWGQGTLVTVSS
notes: VH dAb
B18: DOM.187 (other)
VH: EVQLLESGGGLVQPGGSLRLSCAASGFTFSSYSMVWVRQAPGKGLEWVSGINRGGTRTYYADSVKGRFTISRDNSKNTLYLQMNSLRAEDTAVYYCAKGWRRGFDYWGQGTLVTVSS
notes: VH dAb
B19: DOM.137 (other)
VH: EVQLLESGGGLVQPGGSLRLSCAASGFTFASYPMGWVRQAPGKGLEWVSSIGPIGFTTYYADSVKGRFTISRDNSKNTLYLQMNSLRAEDTAVYYCAEMKSPYKPQFDYWGQGTLVTVSS
notes: VH dAb
B20: DOM.115 (other)
VH: EVQLLESGGGLVQPGGSLRLSCAASGFSISYKNMAWVRQAPGKGLEWVSAIKAANGSTYYADSVKGRFTISRDNSKNTLYLQMNSLRAEDTAVYYCATGSQKKRTYTFDFWGQGTLVTVSS
B21: DOM.194 (other)
VH: EVQLLESGGGLVQPGGSLRLSCAASGFTFKQYDMRWVRQAPGKGLEWVSTISQNGTKTYYADSVKGRFTISRDNSKNTLYLQMNSLRAEDTAVYYCAKSRTGRYFDYWGQGTLVTVSS
notes: VH dAb
B22: DOM.126 (other)
VH: EVQLLESGGGLVQPGGSLRLSCAASGFTFANYSMSWVRQAPGKGLEWVSSIDRLGTHTYYADSVKGRFTISRDNSKNTLYLQMNSLRAEDTAVYYCAKVLADLIAGHAEFDYWGQGTLVTVSS
notes: VH dAb
B23: DOM.145 (other)
VL: DIQMTQSPSSLSASVGDRVTITCRASQTIYTSLSWYQQKPGKAPKLLIHYGSVLQSGVPSRFSGSGSGTDFTLTISSLQPEDSATYYCQQVHQAPTTFGQGTKVEIKR
notes: Vk dAb
B24: DOM.182 (other)
VH: EVQLLESGGGLVQPGGSLRLSCAASGFTFDEYPMYWVRQAPGKGLEWVSSIGPSGPNTYYADSVKGRFTISRDNSKNTLYLQMNSLRAEDTAVYYCAKSPYFDVIPSYFDYWGQGTLVTVSS
notes: VH dAb
B25: DOM.132 (other)
VH: EVQLLESGGGLVQPGGSLRLSCAASGFTFADYDMAWVRQAPGKGLEWVSGIVDDGLMTYYADSVKGRFTISRDNSKNTLYLQMNSLRAEDTAVYYCAKPDVAFDYWGQGTLVTVSN
notes: VH dAb
B26: DOM.121 (other)
VH: EVQLLESGGGLVQPGGSLRLSCAASGFTFELYRMSWVRQAPGKGLEWVSEISGSGFPTYYADSVKGRFTISRDNSKNTLYLQMNSLRAEDTAVYYCAKSLHDKTQHHQEFDYWGQGTLVTVSS
notes: VH dAb
B27: DOM.124 (other)
VH: EVQLLESGGGLVQPGGSLRLSCAASGFTFKRYDMDWVRQAPGKGLEWVSTIGSSGYPTYYADSVKGRFTISRDNSKNTLYLQMNSLRAEDTAVYYCAERMPGYFPGFARQFDYWGQGTLVTVSS
notes: VH dAb
B28: DOM.177 (other)
VH: EVQLLESGGGLVQPGGSLRLSCAASGFTFSNYYMVWVRQAPGKGLEWVSAIDEWGFATYYADSVKGRFTISRDNSKNTLYLQMNSLRAEDTAVYYCAKHWEFTSDTSRFDYWGQGTLVTVSS
notes: VH dAb
B29: DOM.185 (other)
VH: EVQLLESGGGLVQPGGSLRLSCAASGFTFAHYPMSWVRQAPGKGLEWVSSIGRLGNRTYYADSVKGRFTISRDNSKNTLYLQMNSLRAEDTAVYYCAKRATPVPIKGLFDYWGQGTLVTVSS
notes: VH dAb
B30: DOM.123 (other)
VH: EVQLLESGGGLVQPGGSLRLSCAASGFTFIEYPMRWVRQAPGKGLEWVSLISPSGVFTYYADSVKGRFTISRDNSKNTLYLQMNSLRAEDTAVYYCAKGDESSTFDYWGQGTLVTVSS
notes: VH dAb
B31: DOM.146 (other)
VL: DIRMTQSPSSLSASVGDRVTITCRASQWIGDSLAWYQQKPGKAPKLLIYGISELQSGVPSRFSGSGSGTDFTLTISSLQPEDSATYYCQLSSSMPHTFGQGTKVEIKR
notes: Vk dAb
B32: DOM.181 (other)
VH: EVQLLESGGGLVQPGGSLRLSCAASGFTFAFYPMMWVRQAPGKGLEWVSWIDATGTRTYYADSVKGRFTISRDNSKNTLYLQMNSLRAEDTAVYYCAEGNYGSSYTMGVFDYWGQGTLVTVSS
notes: VH dAb
B33: DOM.120 (other)
VH: EVQLLESGGGLVQPGGSLRLSCAASGFTFRSYTMGWVRQAPGKGLEWVSSINPMGYQTYYADSVKGRFTISRDNSKNTLYLQMNSLRAEDTAVYYCAKHGVGKGTKPHNFDYWGQGTLVTVSS
notes: VH dAb

molecular target: T1, Recombinant human CD40L (human, UniProt P29965 108-261, limits assumed); test: CD40L/CD40-Fc receptor binding assay;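 further: plate assay with coated human CD40-Fc, bound ligand detected via HRP anti-biotin antibody and TMB, OD at 450 nm, lower signal indicates stronger inhibition by dAb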
T1 construct: also called CD40 ligand
T1 sequence (looked up): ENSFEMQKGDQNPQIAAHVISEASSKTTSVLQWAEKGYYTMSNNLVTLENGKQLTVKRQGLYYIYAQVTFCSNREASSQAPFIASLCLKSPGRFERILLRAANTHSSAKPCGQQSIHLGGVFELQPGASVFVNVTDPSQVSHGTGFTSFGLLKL

Binding result, binds:
B1
B2
B3
B4
B5
B6
B7
B8
B9
B10
B11
B12
B13
B14
B15
B16
B17
B18
B19
B20
B21
B22
B23
B24
B25
B26
B27
B28
B29
B30
B31
B32
B33
